Target: T1, GST-PDZ2 of SAP97 (rat)
T1 chain: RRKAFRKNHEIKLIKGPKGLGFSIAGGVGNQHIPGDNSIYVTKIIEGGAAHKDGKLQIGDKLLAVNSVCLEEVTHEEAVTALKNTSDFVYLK
Test: pull-down; solubilized membranes of HEK-293 cells expressing 1.2 pmoles of FLAG ß1-AR per mg protein mixed with increasing concentrations of GST-PDZ2; GST pull-downs probed with anti-ß1-AR antibody, optical densities, estimated EC50, n = 3
Details: one partner purified

B1: full length WT FLAG ß1-AR (receptor)
chain: not shown
notes: human ß1-adrenergic receptor, wild type; also called FLAG-tagged WT ß1-AR; WT ß1-AR; not shown: FLAG, N-terminal, kept
EC50: ~1000 nM

From paper PMC3656048, “SAP97 Controls the Trafficking and Resensitization of the Beta-1-Adrenergic Receptor through Its PDZ2 and I3 Domains” (PLoS ONE, 2013)
